Columns and labels:
[1] = biological target: T1, recombinant soluble human HLA-G β2M MHC class I complex, dimer (human); assay: competition ELISA, immobilised HLA-G dimer, antibody titrated, competitor c-myc ILT4
T1 construct: also called HLA-G Dimer; fraction A9
Protocol: The ELISA was set up by coating the biotinylated antigen wt HLA-G to strepdavidin plates. After incubation and washing steps, the respective antibodies were bound in a concentration range from 8-0 μg in 1:3 dilution steps. C-myc tagged ILT-2 or -4 receptor was added to the HLA-G-antibody complexes. After incubation and washing steps, detection of bound receptor was carried out by anti-cmyc-antibody-POD conjugates. IC50 values were determined from the resulting inhibition curves at the antibody concentrations generating the half-maximal inhibition. In case of the non-biotinylated HLA-G dimer and trimer antigens, immobilization was carried out by random coating on assay plates.

[2] = biological target: T2, modified human HLA-G β2M MHC class I complex (HLA-G specific amino acids replaced by HLA-A consensus amino … (human)); assay: SPR (Biacore T200), antibody captured, HLA-G complex injected
T2 construct: also called degrafted HLA-G

[3] = biological target: T2, modified human HLA-G β2M MHC class I …; assay: SPR (Biacore T200), antibody captured via anti-Fc, degrafted HLA-G complex injected, 25 C, 1:1 fit
Protocol: Binding kinetics of anti-HLA-G antibodies to human HLA-G, human HLA-G degrafted and human HLA-A2 were investigated by surface plasmon resonance using a BIACORE T200 instrument (GE Healthcare). All experiments were performed at 25° C. using PBS Buffer (pH 7.4+0.05% Tween20) as running buffer and PBS Buffer (+0.1% BSA) as dilution buffer. Anti-human Fc (JIR009-005-098, Jackson) or anti-rat Fc (JIR112-005-071, Jackson) or anti-Mouse Fc (JIR115-005-071, Jackson) antibodies were immobilized on a Series S CM5 Sensor Chip (GE Healthcare) at pH 5.0 by using an amine coupling kit supplied by GE Healthcare. Anti-HLA-G antibodies were captured on the surface leading to a capturing response of 50-200 RU. HLA-G molecules were injected for 180 s at 30 μl/min with concentrations from 2.5 up to 800 nM (2×1:2 and 4×1:3 dilution series) onto the surface (association phase). The dissociation phase was monitored for 300-600 sec by washing with running buffer. […] Bulk refractive index differences were corrected by subtracting the response obtained from a mock surface. Blank injections were subtracted (double referencing). The derived curves were fitted to a 1:1 Langmuir binding model using the BIAevaluation software.
The above table summarizes the antibody affinities and t1/2 values against wt and degrafted HLA-G as assessed by Surface plasmon resonance (Biacore) analysis. Binding kinetics of anti-HLA-G antibodies to human HLA-G, human HLA-G degrafted and human HLA-A2 were investigated by surface plasmon resonance using a BIACORE T200 instrument (GE Healthcare). All experiments were performed at 25° C. using PBS Buffer (pH 7.4+0.05% Tween20) as running buffer and PBS Buffer (+0.1% BSA) as dilution buffer. Anti-human Fc (JIR009-005-098, Jackson) or anti-rat Fc (JIR112-005-071, Jackson) or anti-Mouse Fc (JIR115-005-071, Jackson) antibodies were immobilized on a Series S CM5 Sensor Chip (GE

IC50 [1] [µM] | binding result [2] | Kd [3] [µM] | koff [3] [s⁻¹] | kon [3] [M⁻¹ s⁻¹] | t ½ [3] [s] | Binder
0.0503 | no binding (tested: 2.5 up to 800 nM) | – | – | – | – | HLA-G-0032 (antibody, V domains shown) VH: QVQLQQSGAELVKPGSSVKISCKASGYSFPSYDMHWIKQQPGNGLEWIGWIYPGNGNTKYNQKFNGKASLTADKSSSTAYMQLSSLTSEDSAVYFCAKPTVATRYNWFAYWGQGTLVTVSS VL: QIVLTQSPALMSASPGEKVTMTCSASSSVNYMHWYQQKPRSSPKPWIYLTSNLASGVPARFSGSGSGTSYSLTISTMEAEDAATYYCQQWSSNLPITFGSGTKLEIK
– | – | 2.12 | 0.116 | 54700 | 6 | HLA-G-0037 (antibody, V domains shown) VH: QVQLKESGPGLVQPSQTLSLTCSVSGFSLTTYSVSWVRQPPGKGLEWIGAIWSGGSTDYNSALKSRLRISRDTSKSQVLLKMNSLQTEDRAMYFCVRMNNKFGYWYFDLWGPGTMVTVSS VL: DTVLTQSPTLAVSPGEKITISCRASETVSTMLHWYQQKPGQQPKLLISLASHLESGVPARFTGSGSGTDFTLTIDPVEADDTATYYCQQTWNDPLTFGSGTKLEIK
0.0313 | – | 0.00362 | 0.0345 | 9.54e+06 | 18 | HLA-G-0033 (antibody, V domains shown) VH: EVQLVETGGGLVQSGRSLKLSCVASGFTFNDYWMTWTRQAPGKGLEWVASITNSGGRTYYLDSVRGRFTISRDDAQNTLYLQMNSLRSEDTATYYCTKERIYLTAYWFFDFWGPGTMVTVSS VL: DTILTQSPALAVSPGERVTISCRASESVSTLIHWYQQKPGQRPKLLIYLASHLESGVPARFSGSGSGTDFTLTIDPVEADDTATYYCQQSWNEPRTFGGGTKLELK
